Results: PMC8142252, “The Arabidopsis thaliana chloroplast division protein FtsZ1 counterbalances FtsZ2 filament stability in vitro” (The Journal of Biological Chemistry, 2021)

Target: T1, AtFtsZ2 (Arabidopsis thaliana FtsZ2-1, full-length mature protein lacking its transit peptide) (Arabidopsis thaliana, UniProt O82533 49-478)
T1 construct: Purified AtFtsZ2 runs as a doublet on SDS-PAGE; also called AtFtsZ2-1; source: E. coli DE3 Rosetta cells overexpressing the E. coli ftsQAZ operon, purified (Ni-NTA); not shown: His6, C-terminal, kept
T1 sequence (looked up): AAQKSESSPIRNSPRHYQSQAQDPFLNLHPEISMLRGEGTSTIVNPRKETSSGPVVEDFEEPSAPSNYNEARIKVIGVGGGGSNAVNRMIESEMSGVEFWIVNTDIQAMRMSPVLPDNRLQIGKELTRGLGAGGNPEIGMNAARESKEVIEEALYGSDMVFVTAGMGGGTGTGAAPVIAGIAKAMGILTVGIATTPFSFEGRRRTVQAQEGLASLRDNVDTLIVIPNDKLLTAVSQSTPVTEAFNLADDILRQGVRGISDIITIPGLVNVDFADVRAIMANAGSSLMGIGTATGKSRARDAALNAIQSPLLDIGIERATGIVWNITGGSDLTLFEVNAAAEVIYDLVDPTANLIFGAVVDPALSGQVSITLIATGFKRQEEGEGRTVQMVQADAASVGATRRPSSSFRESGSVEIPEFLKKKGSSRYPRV
Test: 90° light scattering; 5 μM AtFtsZ2 (or AtFtsZ2core) mixed with AtFtsZ1, AtFtsZ1 D275A (or AtFtsZ1core) at various ratios before start, HMK buffer, room temperature, started by 10 μM or 500 μM GTP
Settings: both partners purified

B1: AtFtsZ1 (Arabidopsis thaliana FtsZ1-1, full-length mature protein lacking its transit peptide) (natural protein, UniProt Q42545 58-433, looked up)
chain: RSKSMRLRCSFSPMESARIKVIGVGGGGNNAVNRMISSGLQSVDFYAINTDSQALLQSSAENPLQIGELLTRGLGTGGNPLLGEQAAEESKDAIANALKGSDLVFITAGMGGGTGSGAAPVVAQISKDAGYLTVGVVTYPFSFEGRKRSLQALEAIEKLQKNVDTLIVIPNDRLLDIADEQTPLQDAFLLADDVLRQGVQGISDIITIPGLVNVDFADVKAVMKDSGTAMLGVGVSSSKNRAEEAAEQATLAPLIGSSIQSATGVVYNITGGKDITLQEVNRVSQVVTSLADPSANIIFGAVVDDRYTGEIHVTIIATGFSQSFQKTLLTDPRAAKLLDKMGSSGQQENKGMSLPHQKQSPSTISTKSSSPRRLFF
notes: also called AtFtsZ1-1; source: E. coli DE3 Rosetta cells overexpressing the E. coli ftsQAZ operon, purified (Ni-NTA); not shown: His6, C-terminal, kept
  binding result: binds
